T1: Myo5 SH3 (MYO5_YEAST), Q04439
T1 chain: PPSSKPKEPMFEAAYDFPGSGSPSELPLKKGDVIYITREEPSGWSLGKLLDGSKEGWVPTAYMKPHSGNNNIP

T2: Rvs167 SH3 (RV167_YEAST), P39743
T2 chain: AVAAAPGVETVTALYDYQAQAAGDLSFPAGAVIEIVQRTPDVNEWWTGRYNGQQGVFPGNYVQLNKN

T3: Boi1 SH3 (BOI1_YEAST), P38041
T3 chain: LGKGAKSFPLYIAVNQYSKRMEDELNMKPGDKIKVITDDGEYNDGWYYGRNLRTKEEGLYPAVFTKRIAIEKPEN

T4: Boi2 SH3 (BOI2_YEAST), P39969
T4 chain: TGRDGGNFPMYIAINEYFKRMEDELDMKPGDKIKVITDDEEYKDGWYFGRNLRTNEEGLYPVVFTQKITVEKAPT

T5: Yfr024 SH3 (LSB3_YEAST), P43603
T5 chain: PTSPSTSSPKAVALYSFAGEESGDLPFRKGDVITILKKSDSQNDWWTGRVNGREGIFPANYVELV

T6: Yhr016c SH3 (YSC84_YEAST), P32793
T6 chain: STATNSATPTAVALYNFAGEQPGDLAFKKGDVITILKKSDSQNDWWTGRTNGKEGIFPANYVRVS

B1: YLR083C 510-523 (peptide)
chain: NQIARQIPFQPWYL
B2: YPL066W 13-26 (peptide)
chain: NSVIRGSPGLPDTL
B3: YEL009C 209-222 (peptide)
chain: NRKQRSIPLSPIVP
B4: YOL049W 169-182 (peptide)
chain: NRANKYDPKGPIYN
B5: YGR198W 3-16 (peptide)
chain: NSNVRIPPTVPSKI
B6: YBR056W 255-268 (peptide)
chain: NTVEKLQPGLPVII
B7: YDR107C 515-528 (peptide)
chain: NQIARQIPYQPWYL
B8: YJL020C 582-595 (peptide)
chain: NSGEKIYPQEPPIS

Molecular target: T1, Myo5 SH3 (MYO5_YEAST), Q04439
Assay: SPOT array

Compared with B1, B2 is lower in normalised SPOT signal, Boehringer light units (BLU); mean over the file's lines of this peptide: 248 for the first, 151 for the second.

First: B3
Second: B4
The normalised SPOT signal, Boehringer light units (BLU); mean over the file's lines of this peptide of the first is higher: 491 for the first, 205 for the second.

Going from B5 to B6, the normalised SPOT signal, Boehringer light units (BLU); mean over the file's lines of this peptide falls from 423 to 280.

Going from B7 to B8, the normalised SPOT signal, Boehringer light units (BLU); mean over the file's lines of this peptide falls from 164 to 112.

Molecular target: Sho1 SH3 (SHO1_YEAST), P40073
Assay: SPOT array

Sequence of Sho1 SH3 (SHO1_YEAST), P40073 (P40073 295-366): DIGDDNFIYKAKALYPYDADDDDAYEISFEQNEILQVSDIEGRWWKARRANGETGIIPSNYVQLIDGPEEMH

Going from B1 to B2, the normalised SPOT signal, Boehringer light units (BLU); mean over the file's lines of this peptide falls from 75.8 to 35.5.

First: B3
Second: B4
The normalised SPOT signal, Boehringer light units (BLU); mean over the file's lines of this peptide of the first is higher: 183 for the first, 21.7 for the second.

First: B5
Second: B6
The normalised SPOT signal, Boehringer light units (BLU); mean over the file's lines of this peptide of the first is higher: 1460 for the first, 2.8 for the second.

First: B7
Second: B8
The normalised SPOT signal, Boehringer light units (BLU); mean over the file's lines of this peptide of the first is higher: 47.5 for the first, 25.7 for the second.

Molecular target: T2, Rvs167 SH3 (RV167_YEAST), P39743
Assay: SPOT array

Compared with B1, B2 is higher in normalised SPOT signal, Boehringer light units (BLU); mean over the file's lines of this peptide: 100 for the first, 251 for the second.

Compared with B3, B4 is lower in normalised SPOT signal, Boehringer light units (BLU); mean over the file's lines of this peptide: 307 for the first, 109 for the second.

First: B5
Second: B6
The normalised SPOT signal, Boehringer light units (BLU); mean over the file's lines of this peptide of the first is higher: 155 for the first, 16.6 for the second.

Compared with B7, B8 is higher in normalised SPOT signal, Boehringer light units (BLU); mean over the file's lines of this peptide: 33.3 for the first, 43.4 for the second.

Molecular target: T3, Boi1 SH3 (BOI1_YEAST), P38041
Assay: SPOT array

Compared with B1, B2 is higher in normalised SPOT signal, Boehringer light units (BLU); mean over the file's lines of this peptide: 22.9 for the first, 228 for the second.

Going from B3 to B4, the normalised SPOT signal, Boehringer light units (BLU); mean over the file's lines of this peptide falls from 2120 to 545.

Going from B5 to B6, the normalised SPOT signal, Boehringer light units (BLU); mean over the file's lines of this peptide falls from 178 to 41.

Compared with B7, B8 is lower in normalised SPOT signal, Boehringer light units (BLU); mean over the file's lines of this peptide: 105 for the first, 53.9 for the second.

Molecular target: T4, Boi2 SH3 (BOI2_YEAST), P39969
Assay: SPOT array

First: B1
Second: B2
The normalised SPOT signal, Boehringer light units (BLU); mean over the file's lines of this peptide of the first is higher: 36.1 for the first, 35 for the second.

Going from B3 to B4, the normalised SPOT signal, Boehringer light units (BLU); mean over the file's lines of this peptide falls from 77.3 to 0.

Compared with B5, B6 is higher in normalised SPOT signal, Boehringer light units (BLU); mean over the file's lines of this peptide: 16.9 for the first, 33.2 for the second.

Going from B7 to B8, the normalised SPOT signal, Boehringer light units (BLU); mean over the file's lines of this peptide falls from 37.7 to 0.

Molecular target: T5, Yfr024 SH3 (LSB3_YEAST), P43603
Assay: SPOT array

Compared with B1, B2 is lower in normalised SPOT signal, Boehringer light units (BLU); mean over the file's lines of this peptide: 312 for the first, 241 for the second.

First: B3
Second: B4
The normalised SPOT signal, Boehringer light units (BLU); mean over the file's lines of this peptide of the first is higher: 1250 for the first, 58 for the second.

Going from B5 to B6, the normalised SPOT signal, Boehringer light units (BLU); mean over the file's lines of this peptide falls from 1510 to 33.6.

Compared with B7, B8 is lower in normalised SPOT signal, Boehringer light units (BLU); mean over the file's lines of this peptide: 145 for the first, 22.7 for the second.

Molecular target: T6, Yhr016c SH3 (YSC84_YEAST), P32793
Assay: SPOT array

First: B1
Second: B2
The normalised SPOT signal, Boehringer light units (BLU); mean over the file's lines of this peptide of the first is lower: 50.4 for the first, 296 for the second.

Going from B3 to B4, the normalised SPOT signal, Boehringer light units (BLU); mean over the file's lines of this peptide falls from 521 to 77.6.

First: B5
Second: B6
The normalised SPOT signal, Boehringer light units (BLU); mean over the file's lines of this peptide of the first is higher: 113 for the first, 12 for the second.

First: B7
Second: B8
The normalised SPOT signal, Boehringer light units (BLU); mean over the file's lines of this peptide of the first is higher: 42.8 for the first, 16.6 for the second.

Source: PMC314469, “Protein Interaction Networks by Proteome Peptide Scanning” (PLoS Biology, 2004)
